{"source": "patent US20100137208A1", "about": "“INTRATUMORALLY ADMINISTERED LACTOFERRIN IN THE TREATMENT OF MALIGNANTNEOPLASMS AND OTHER HYPERPROLIFERATIVE DISEASES” (priority 2002, published 2010)", "key": {"[1]": {"test_system": "Human squamous cell carcinoma (O12)", "assay": "Inhibition of tumor growth by rhLF in O12 tumor model in mice", "format": "in vivo, athymic nude mice", "description": "Human squamous cell carcinoma (O12) was used. The cells were injected into the right flank of athymic nude mice. rhLF was administered either intratumorally (49 animals, 7 doses ranging from 0.05 μg to 125 μg per dose), intravenously (7 animals, 125 μg/dose) or orally (7 animals 20 mg/dose). Control animals were treated with only the vehicle; no rhLF was administered to the control animals. rhLF was administered twice a day for either five days (intravenous group) or eight days (all other groups) starting 11 days after inoculation with tumor cells to allow formation of established tumors.\nThe efficacy of treatment was evaluated by measuring the solid tumor size during and at the end of the experiment; the body weights were also determined at the time of tumor measurements."}, "YAC targets": {"test_system": "YAC targets", "assay": "NK activity ex vivo after oral rhLF (LDH release test)", "format": "in vivo, Balb/c naïve mice", "conditions": "for % Cytotoxicity Final (NK activity): oral 300 mg/kg/day 3 days, spleen NK cells day 4", "description": "Balb/c naïve mice were treated orally with rhLF or placebo once a day for 3 days (see Table 4).\n(§1) On day 4, mice were sacrificed and spleens were collected. NK cells were separated using a magnetic bead cell sorting assay (MACS anti-NK-DX5) and counted. Cells were then tested in vitro for NK-activity against YAC targets using a lactate dehydrogenase (LDH) release test.\nas §1, with “Balb/c naïve mice were treated orally with rhLF or placebo once a” for “On”, “for 3 days. One day later (day 4),” for “4,”, “spleens” for “spleens were”"}, "metastatic cancer": {"test_system": "metastatic cancer", "assay": "Oral rhLF in human patients with metastatic cancer, tumor size by CT", "format": "in vivo", "description": "Recombinant human lactoferrin was orally administered to human patients with a range of metastatic cancer types that had failed standard chemotherapy in two different studies conducted in multiple centers in four countries (Argentina, Brazil, Chile, U.S.) RhLF was administered at doses of 1.5 to 9 grams daily in two divided doses in cycles of 14 each with a 14 day gap.\nTumor size progression was monitored through CT scans and tumor markers where available. CT scans were performed at baseline and after each 8-week period once treatment was initiated, and also compared with a pre-baseline scan conducted prior to enrollment in the study. Tumor markers are measured every 4 weeks. Blood samples were collected to measure subclasses of circulating lymphocytes and NK cell activity. Plasma, serum and blood cell extract samples were collected to measure circulating IL-18, IL-1, IL-2, and IL-4, IL-5, IL-10, IL-12 and IFN-γ."}}, "note": "Values joined by “and” are separate entries in the source; they are usually repeats but may differ in a detail not shown here. Equal values may be shown once. Marks after values point to notes of the source that are not given here.", "data": [{"molecule": "rhLF: recombinant human lactoferrin, a single chain metal binding glycoprotein (protein, UniProt P02788 20-710, looked up) Lactotransferrin: GRRRSVQWCAVSQPEATKCFQWQRNMRKVRGPPVSCIKRDSPIQCIQAIAENRADAVTLDGGFIYEAGLAPYKLRPVAAEVYGTERQPRTHYYAVAVVKKGGSFQLNELQGLKSCHTGLRRTAGWNVPIGTLRPFLNWTGPPEPIEAAVARFFSASCVPGADKGQFPNLCRLCAGTGENKCAFSSQEPYFSYSGAFKCLRDGAGDVAFIRESTVFEDLSDEAERDEYELLCPDNTRKPVDKFKDCHLARVPSHAVVARSVNGKEDAIWNLLRQAQEKFGKDKSPKFQLFGSPSGQKDLLFKDSAIGFSRVPPRIDSGLYLGSGYFTAIQNLRKSEEEVAARRARVVWCAVGEQELRKCNQWSGLSEGSVTCSSASTTEDCIALVLKGEADAMSLDGGYVYTAGKCGLVPVLAENYKSQQSSDPDPNCVDRPVEGYLAVAVVRRSDTSLTWNSVKGKKSCHTAVDRTAGWNIPMGLLFNQTGSCKFDEYFSQSCAPGSDPRSNLCALCIGDEQGENKCVPNSNERYYGYTGAFRCLAENAGDVAFVKDVTVLQNTDGNNNEAWAKDLKLADFALLCLDGKRKPVTEARSCHLAMAPNHAVVSRMDKVERLKQVLLHQQAKFGRNGSDCPDKFCLFQSETKNLLFNDNTECLARLHGKTTYEKYLGPQYVAGITNLKKCSTSPLLEACEFLRK", "values": [{"measurement": "Inhibition Relative to Placebo (tumor growth)", "setting": "[1]; Intratumoral, 0.05 μg to 125 μg per dose twice a day for eight days, N = 49, Day 19", "value": 28, "unit": "%"}, {"measurement": "Inhibition Relative to Placebo (tumor growth)", "setting": "[1]; Intratumoral, 0.05 μg to 125 μg per dose twice a day for eight days, N = 49, Day 28", "value": 46, "unit": "%"}, {"measurement": "Inhibition Relative to Placebo (tumor growth)", "setting": "[1]; Intravenous, 125 μg/dose twice a day for five days, N = 7, Day 19", "value": 55, "unit": "%"}, {"measurement": "Inhibition Relative to Placebo (tumor growth)", "setting": "[1]; Intravenous, 125 μg/dose twice a day for five days, N = 7, Day 28", "value": 65, "unit": "%"}, {"measurement": "Inhibition Relative to Placebo (tumor growth)", "setting": "[1]; Oral, 20 mg/dose twice a day for eight days, N = 7, Day 19", "value": 76, "unit": "%"}, {"measurement": "Inhibition Relative to Placebo (tumor growth)", "setting": "[1]; Oral, 20 mg/dose twice a day for eight days, N = 7, Day 28", "value": 80, "unit": "%"}, {"measurement": "reduced rates of tumor growth relative to the control", "setting": "[1]; across intratumoral, intravenous and oral routes", "value": "46% to 80"}, {"measurement": "relative increase of NK activity over placebo-treated animals", "setting": "YAC targets; 30:1 E:T ratio", "value": 243, "unit": "%"}, {"measurement": "% Cytotoxicity Increased over ctrl", "setting": "YAC targets; E:T ratio 3.7:1, versus placebo group", "value": 0, "unit": "%"}, {"measurement": "% Cytotoxicity Increased over ctrl", "setting": "YAC targets; E:T ratio 7.5:1, versus placebo group", "value": 0, "unit": "%"}, {"measurement": "% Cytotoxicity Increased over ctrl", "setting": "YAC targets; E:T ratio 15:1, versus placebo group", "value": 1.3, "unit": "%"}, {"measurement": "% Cytotoxicity Increased over ctrl", "setting": "YAC targets; E:T ratio 30:1, versus placebo group", "value": "7** %"}, {"measurement": "% Cytotoxicity Final (NK activity)", "setting": "YAC targets; E:T ratio 3.7:1", "value": 0, "unit": "%"}, {"measurement": "% Cytotoxicity Final (NK activity)", "setting": "YAC targets; E:T ratio 7.5:1", "value": 0.44, "unit": "%"}, {"measurement": "% Cytotoxicity Final (NK activity)", "setting": "YAC targets; E:T ratio 15:1", "value": 4.12, "unit": "%"}, {"measurement": "% Cytotoxicity Final (NK activity)", "setting": "YAC targets; E:T ratio 30:1, 300 mg/kg/day", "value": "10% and 9.81%"}, {"measurement": "Post Treatment 1 % Growth of tumor", "setting": "metastatic cancer; Patient # 007, Lung, 7.5 weeks, pretreatment 160% (5.5 weeks)", "value": 13, "unit": "%"}, {"measurement": "Post Treatment 2 % Growth of tumor", "setting": "metastatic cancer; Patient # 007, Lung, 8.5 weeks, pretreatment 160% (5.5 weeks)", "value": 12, "unit": "%"}, {"measurement": "Post Treatment 2 % Growth of tumor", "setting": "metastatic cancer; Patient # 102, Ovarian, 8.5 weeks, pretreatment 30% (21 weeks)", "value": "−7", "unit": "%"}, {"measurement": "Post Treatment 1 % Growth of tumor", "setting": "metastatic cancer; Patient # 102, Ovarian, 10.5 weeks, pretreatment 30% (21 weeks)", "value": "−5", "unit": "%"}, {"measurement": "Post Treatment 2 % Growth of tumor", "setting": "metastatic cancer; Patient # 104, Gastric, 7 weeks, pretreatment 25% (5.5 weeks)", "value": "−5", "unit": "%"}, {"measurement": "Post Treatment 1 % Growth of tumor", "setting": "metastatic cancer; Patient # 104, Gastric, 10 weeks, pretreatment 25% (5.5 weeks)", "value": 10, "unit": "%"}, {"measurement": "Post Treatment 1 % Growth of tumor", "setting": "metastatic cancer; Patient # 106, Melanoma, 11 weeks, pretreatment 24% (19 weeks)", "value": "−18", "unit": "%"}, {"measurement": "Post Treatment 2 % Growth of tumor", "setting": "metastatic cancer; Patient # 204, Breast, 6.5 weeks, pretreatment 40% (8 weeks)", "value": 0, "unit": "%"}, {"measurement": "Post Treatment 1 % Growth of tumor", "setting": "metastatic cancer; Patient # 204, Breast, 10 weeks, pretreatment 40% (8 weeks)", "value": 0, "unit": "%"}, {"measurement": "patients with stable disease by the RECIST criteria", "setting": "metastatic cancer; oral 1.5 to 9 grams daily, nine of nineteen evaluable patients, first post-treatment scan", "value": 47, "unit": "%"}]}]}
